{"source": "patent US20170274068A1", "about": "“IMMUNOLOGICAL REAGENT” (priority 2014, published 2017)", "molecules": {"B1": {"name": "OVA: protein antigen OVA used as model antigen, alone (protein, UniProt P01012 2-386, looked up)", "Ovalbumin": "GSIGAASMEFCFDVFKELKVHHANENIFYCPIAIMSALAMVYLGAKDSTRTQINKVVRFDKLPGFGDSIEAQCGTSVNVHSSLRDILNQITKPNDVYSFSLASRLYAEERYPILPEYLQCVKELYRGGLEPINFQTAADQARELINSWVESQTNGIIRNVLQPSSVDSQTAMVLVNAIVFKGLWEKAFKDEDTQAMPFRVTEQESKPVQMMYQIGLFRVASMASEKMKILELPFASGTMSMLVLLPDEVSGLEQLESIINFEKLTEWTSSNVMEERKIKVYLPRMKMEEKYNLTSVLMAMGITDVFSSSANLSGISSAESLKISQAVHAAHAEINEAGREVVGSAEAGVDAASVSEEFRADHPFLFCIKHIATNAVLFFGRCVSP"}}, "key": {"[1]": {"assay": "Optical density of antigen and lipopeptide formulations (450 nm)", "type": "physicochemical", "details": "constant OVA (25 μg) plus increasing lipopeptide, up to 3-fold molar excess, PBS", "method": "Optical density of antigen and lipopeptide formulations. A constant amount (0.55 nmol; 25 μg) of OVA was mixed with each lipopeptide at different protein:lipopeptide molar ratios in 50 μl of PBS in a 96-well plate at room temperature. The optical density of these solutions was then measured on a plate reader at a wavelength of 450 nm."}, "CD8+CD45.1+ OT-I cells": {"system": "CD8+CD45.1+ OT-I cells", "assay": "In vivo proliferative T cell responses, adoptive transfer of CFSE labelled OT-I cells", "design": "species or system C57BL/6 mice", "details": "3 μg OVA alone or with 3-fold molar excess lipopeptide, s.c., inguinal LNs day 3", "from_the_text": "In vivo proliferative T cell responses. […] Inguinal LNs were obtained 3 days after vaccination and CFSE intensities of CD8^+CD45.1^+ cells measured by flow cytometry.\nTo characterise early events associated with vaccine-mediated induction of CD8^+ T cell responses, the present inventors utilised the adoptive transfer of CD8^+ T cells from OTI transgenic mice that express the Vα2 TCR specific for OVA257. […] Analysis of OTI T cells in the draining lymph nodes of vaccinated animals was then carried out 3 days later and the loss of CFSE in these cells was used as an indicator of T cell proliferation."}, "[2]": {"assay": "Dynamic light scattering analysis of vaccine formulations", "type": "physicochemical", "description": "FIG. 3. Particle size distribution of antigen and lipopeptide formulations. OVA (25 μg) was mixed with each lipopeptide at a 1:3 molar ratio of protein to lipopeptide in […] of PBS in a 96-well plate at room temperature. The size distribution of particulates in samples were then analysed by dynamic light scattering with each profile depicting the hydrodynamic radius (nm) of particles detected versus the percentage intensity of scattered light (% intensity).\nTo determine the size of complexes formed between OVA and each lipopeptide, we analysed these formulations by dynamic light scattering."}}, "data": [{"molecule": "CCCCCCCCCCCCCCCC(=O)OCC(CSCC(N)C(=O)N[C@@H](CO)C(=O)N[C@@H](CO)C(=O)NCCCC[C@H](NC(=O)[C@H](CCCCNC(=O)[C@H](CCCCNC(=O)[C@@H](N)CCCNC(=N)N)NC(=O)[C@@H](N)CCCNC(=N)N)NC(=O)[C@H](CCCCNC(=O)[C@@H](N)CCCNC(=N)N)NC(=O)[C@@H](N)CCCNC(=N)N)C(N)=O)OC(=O)CCCCCCCCCCCCCCC", "note": "(some centres unmarked) [R4Pam2Cys]", "values": [{"measurement": "optical density (OD) of solutions, solubility", "setting": "[1]", "result": "increase in OD"}]}, {"molecule": "OVA: protein antigen OVA used as model antigen, alone", "values": [{"measurement": "division of T cells (percentage of OT-I cells which proliferated)", "setting": "CD8+CD45.1+ OT-I cells", "result": "~37", "unit": "%"}]}, {"molecule": "B1", "values": [{"measurement": "Hydrodynamic diameter (nm)", "setting": "[2]; DLS at 25° C in PBS, mixtures: OVA 25 μg, 1:3 molar ratio protein to lipopeptide", "result": "199.5 ± 42.6", "unit": "nm"}, {"measurement": "% Pd (polydispersity)", "setting": "[2]; DLS at 25° C, <20% is considered monodispersed", "result": "27.1 ± 11.5", "unit": "%"}, {"measurement": "particle size of sample alone", "setting": "[2]; OVA or lipopeptide alone", "result": "157-242 nm"}]}]}
